Laboratory results: patent publication US20210388087A1 (Chugai, published 2021)
Changes are numbered by the printed parent chain. In names and notes the source's numbering stands.

B1: dBBDu183H A100fG / dBBDu072L (antibody, name in Kabat numbering, V domains shown)
VH: QVQLVESGGGLVQPGRSLRLSCAASGFTFSNAWMHWVRQAPGKGLEWVAQIKDKGNAYAAYYAPSVKGRFTISRDDSKNSIYLQMNSLKTEDTAVYYCHYVHYASASTVLPGFGVDAWGQGTTVTVSS
VL: DIVMTQSPLSLPVTPGEPASISCQASQELVHMNRNTYLHWYQQKPGQAPRLLIYKVSNRFPGVPDRFSGSGSGTDFTLKISRVEAEDVGVYYCAQGTSVPFTFGQGTKLEIK
notes: as m1, one VH change
B2: dBBDu183H A100fH / dBBDu072L (antibody, name in Kabat numbering, V domains shown)
VH: B1 VH with G112H
VL: B1 VL
notes: as m1, one VH change
B3: dBBDu183H G65H / dBBDu072L (antibody, name in Kabat numbering, V domains shown)
VH: B1 VH with G68H, G112A
VL: B1 VL
notes: as m1, one VH change
B4: dBBDu183H G65N / dBBDu072L (antibody, name in Kabat numbering, V domains shown)
VH: B1 VH with G68N, G112A
VL: B1 VL
notes: as m1, one VH change
B5: dBBDu183H D101T / dBBDu072L (antibody, name in Kabat numbering, V domains shown)
VH: B1 VH with G112A, D116T
VL: B1 VL
notes: as m1, one VH change
B6: dBBDu183H H96V / dBBDu072L (antibody, name in Kabat numbering, V domains shown)
VH: B1 VH with H102V, G112A
VL: B1 VL
notes: as m1, one VH change
B7: dBBDu183H F100gW / dBBDu072L (antibody, name in Kabat numbering, V domains shown)
VH: B1 VH with G112A, F113W
VL: B1 VL
notes: as m1, one VH change
B8: dBBDu183H F100gQ / dBBDu072L (antibody, name in Kabat numbering, V domains shown)
VH: B1 VH with G112A, F113Q
VL: B1 VL
notes: as m1, one VH change
B9: dBBDu183H K64R / dBBDu072L (antibody, name in Kabat numbering, V domains shown)
VH: B1 VH with K67R, G112A
VL: B1 VL
notes: as m1, one VH change
B10: dBBDu183H F100gV / dBBDu072L (antibody, name in Kabat numbering, V domains shown)
VH: B1 VH with G112A, F113V
VL: B1 VL
notes: as m1, one VH change
B11: dBBDu183H H96F / dBBDu072L (antibody, name in Kabat numbering, V domains shown)
VH: B1 VH with H102F, G112A
VL: B1 VL
notes: as m1, one VH change
B12: dBBDu183H K64F / dBBDu072L (antibody, name in Kabat numbering, V domains shown)
VH: B1 VH with K67F, G112A
VL: B1 VL
notes: as m1, one VH change
B13: dBBDu183H A100fS / dBBDu072L (antibody, name in Kabat numbering, V domains shown)
VH: B1 VH with G112S
VL: B1 VL
notes: as m1, one VH change
B14: dBBDu183H G65F / dBBDu072L (antibody, name in Kabat numbering, V domains shown)
VH: B1 VH with G68F, G112A
VL: B1 VL
notes: as m1, one VH change
B15: dBBDu183H G65Y / dBBDu072L (antibody, name in Kabat numbering, V domains shown)
VH: B1 VH with G68Y, G112A
VL: B1 VL
notes: as m1, one VH change
B16: dBBDu183H F100gE / dBBDu072L (antibody, name in Kabat numbering, V domains shown)
VH: B1 VH with G112A, F113E
VL: B1 VL
notes: as m1, one VH change
B17: dBBDu183H G65Q / dBBDu072L (antibody, name in Kabat numbering, V domains shown)
VH: B1 VH with G68Q, G112A
VL: B1 VL
notes: as m1, one VH change
B18: dBBDu183H K64G / dBBDu072L (antibody, name in Kabat numbering, V domains shown)
VH: B1 VH with K67G, G112A
VL: B1 VL
notes: as m1, one VH change
B19: dBBDu183H D101Q / dBBDu072L (antibody, name in Kabat numbering, V domains shown)
VH: B1 VH with G112A, D116Q
VL: B1 VL
notes: as m1, one VH change
B20: dBBDu183H G65W / dBBDu072L (antibody, name in Kabat numbering, V domains shown)
VH: B1 VH with G68W, G112A
VL: B1 VL
notes: as m1, one VH change
B21: dBBDu183H A102S / dBBDu072L (antibody, name in Kabat numbering, V domains shown)
VH: B1 VH with G112A, A117S
VL: B1 VL
notes: as m1, one VH change
B22: dBBDu183H A102G / dBBDu072L (antibody, name in Kabat numbering, V domains shown)
VH: B1 VH with G112A, A117G
VL: B1 VL
notes: as m1, one VH change
B23: dBBDu183H G65S / dBBDu072L (antibody, name in Kabat numbering, V domains shown)
VH: B1 VH with G68S, G112A
VL: B1 VL
notes: as m1, one VH change
B24: dBBDu183H G65V / dBBDu072L (antibody, name in Kabat numbering, V domains shown)
VH: B1 VH with G68V, G112A
VL: B1 VL
notes: as m1, one VH change
B25: dBBDu183H G65T / dBBDu072L (antibody, name in Kabat numbering, V domains shown)
VH: B1 VH with G68T, G112A
VL: B1 VL
notes: as m1, one VH change
B26: dBBDu183H D101S / dBBDu072L (antibody, name in Kabat numbering, V domains shown)
VH: B1 VH with G112A, D116S
VL: B1 VL
notes: as m1, one VH change
B27: dBBDu183H G65E / dBBDu072L (antibody, name in Kabat numbering, V domains shown)
VH: B1 VH with G68E, G112A
VL: B1 VL
notes: as m1, one VH change
B28: dBBDu183H F100gS / dBBDu072L (antibody, name in Kabat numbering, V domains shown)
VH: B1 VH with G112A, F113S
VL: B1 VL
notes: as m1, one VH change
B29: dBBDu183H K64H / dBBDu072L (antibody, name in Kabat numbering, V domains shown)
VH: B1 VH with K67H, G112A
VL: B1 VL
notes: as m1, one VH change
B30: dBBDu183H K64Q / dBBDu072L (antibody, name in Kabat numbering, V domains shown)
VH: B1 VH with K67Q, G112A
VL: B1 VL
notes: as m1, one VH change
B31: dBBDu183H H93N / dBBDu072L (antibody, name in Kabat numbering, V domains shown)
VH: B1 VH with H99N, G112A
VL: B1 VL
notes: as m1, one VH change
B32: dBBDu183H D101E / dBBDu072L (antibody, name in Kabat numbering, V domains shown)
VH: B1 VH with G112A, D116E
VL: B1 VL
notes: as m1, one VH change
B33: dBBDu183H G65R / dBBDu072L (antibody, name in Kabat numbering, V domains shown)
VH: B1 VH with G68R, G112A
VL: B1 VL
notes: as m1, one VH change
B34: dBBDu183H H96Y / dBBDu072L (antibody, name in Kabat numbering, V domains shown)
VH: B1 VH with H102Y, G112A
VL: B1 VL
notes: as m1, one VH change
B35: dBBDu183H G65D / dBBDu072L (antibody, name in Kabat numbering, V domains shown)
VH: B1 VH with G68D, G112A
VL: B1 VL
notes: as m1, one VH change
B36: dBBDu183H G65K / dBBDu072L (antibody, name in Kabat numbering, V domains shown)
VH: B1 VH with G68K, G112A
VL: B1 VL
notes: as m1, one VH change
B37: dBBDu183H K64D / dBBDu072L (antibody, name in Kabat numbering, V domains shown)
VH: B1 VH with K67D, G112A
VL: B1 VL
notes: as m1, one VH change
B38: dBBDu183H H96T / dBBDu072L (antibody, name in Kabat numbering, V domains shown)
VH: B1 VH with H102T, G112A
VL: B1 VL
notes: as m1, one VH change
B39: dBBDu183H F100gY / dBBDu072L (antibody, name in Kabat numbering, V domains shown)
VH: B1 VH with G112A, F113Y
VL: B1 VL
notes: as m1, one VH change
B40: dBBDu183H F100gH / dBBDu072L (antibody, name in Kabat numbering, V domains shown)
VH: B1 VH with G112A, F113H
VL: B1 VL
notes: as m1, one VH change
B41: dBBDu183H F100gT / dBBDu072L (antibody, name in Kabat numbering, V domains shown)
VH: B1 VH with G112A, F113T
VL: B1 VL
notes: as m1, one VH change
B42: dBBDu183H H96W / dBBDu072L (antibody, name in Kabat numbering, V domains shown)
VH: B1 VH with H102W, G112A
VL: B1 VL
notes: as m1, one VH change
B43: dBBDu183H D101N / dBBDu072L (antibody, name in Kabat numbering, V domains shown)
VH: B1 VH with G112A, D116N
VL: B1 VL
notes: as m1, one VH change
B44: dBBDu183H K64N / dBBDu072L (antibody, name in Kabat numbering, V domains shown)
VH: B1 VH with K67N, G112A
VL: B1 VL
notes: as m1, one VH change

molecular target: T1, Human CD137 ECD (human); assay: SPR, vs parent H183/L072
T1 construct: also called 4-1BB
T1 sequence (chain, as listed by the source limits assumed): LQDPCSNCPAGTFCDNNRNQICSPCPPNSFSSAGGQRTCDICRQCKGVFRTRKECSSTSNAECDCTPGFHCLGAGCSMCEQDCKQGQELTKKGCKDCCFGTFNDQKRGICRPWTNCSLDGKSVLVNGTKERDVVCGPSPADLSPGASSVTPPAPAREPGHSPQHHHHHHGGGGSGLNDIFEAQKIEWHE

Binder | fold change of affinity
B1 | 0.6 fold
B2 | 1 fold
B3 | 1.2 fold
B4 | 1.2 fold
B5 | 3.3 fold
B6 | 0.8 fold
B7 | 0.6 fold
B8 | 0.8 fold
B9 | 1.1 fold
B10 | 0.5 fold
B11 | 1.4 fold
B12 | 1.1 fold
B13 | 0.7 fold
B14 | 1.3 fold
B15 | 1.3 fold
B16 | 1.9 fold
B17 | 1.2 fold
B18 | 1.1 fold
B19 | 1.7 fold
B20 | 1.3 fold
B21 | 0.9 fold
B22 | 1.6 fold

Binder | fold change of affinity
B23 | 1.2 fold
B24 | 1.2 fold
B25 | 1.3 fold
B26 | 3.3 fold
B27 | 1.3 fold
B28 | 0.4 fold
B29 | 1.1 fold
B30 | 1.1 fold
B31 | 0.1 fold
B32 | 2.2 fold
B33 | 1.1 fold
B34 | 3.3 fold
B35 | 1.3 fold
B36 | 1.1 fold
B37 | 1.1 fold
B38 | 0.5 fold
B39 | 1 fold
B40 | 0.7 fold
B41 | 0.7 fold
B42 | 1.6 fold
B43 | 0.7 fold
B44 | 1 fold
